{"source": "patent US20220403031A1", "about": "(WUXI BIOLOGICS IRELAND, published 2022)", "binders": {"B1": {"name": "AP3R2-1A3-z12-hIgG1 (Fc fusion)", "chain": "EVQLVESGGGLVQPGGSLRLSCAASGHFSNLAVNWFRQAPGKERELVAGILWSGGSTFYADSVKGRFTISRGNAENMLYLQMNSLRAEDTAVYYCNTGTNWGQGTLVTVSS", "notes": "VHH-Fc (hIgG1) fusion of the humanized VHH; also called W3156-AP3R2-1A3-z12-hIgG1; W3156 antibody; not shown: Fc of human IgG1"}}, "key": {"[1]": {"target": "T1, human PD-L1 on CHO-K1 cells (W315-CHO-K1.hPro1.C11) (human, UniProt Q9NZQ7 19-290)", "T1 construct": "whole, on cells; also called cell surface human PD-L1; Human PD-L1-expressing CHO-K1 cell", "T1 sequence (Q9NZQ7 19-290)": "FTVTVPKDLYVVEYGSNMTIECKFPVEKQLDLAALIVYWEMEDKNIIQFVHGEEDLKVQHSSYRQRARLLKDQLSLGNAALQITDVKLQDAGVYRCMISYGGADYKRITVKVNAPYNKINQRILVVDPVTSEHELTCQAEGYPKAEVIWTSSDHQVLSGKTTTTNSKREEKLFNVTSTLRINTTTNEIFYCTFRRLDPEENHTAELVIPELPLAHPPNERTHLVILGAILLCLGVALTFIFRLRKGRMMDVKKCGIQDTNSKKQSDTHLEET", "assay": "FACS competition on human PD-L1 CHO-K1 cells: titrated W3156 antibody mixed with 0.5 ug/mL biotinylated BMK6.hIgG4 (m4), SA-PE [A]", "method": "(§1) Human PD-L1 expressing cells W315-CHO-K1.hPro1.C11 were transferred into 96-well U-bottom plates at a density of 1×10⁵ cells/well. […] Then the mixture was added to the cells in 96-well plates and incubated at 4° C. for 1 hour. After washing with 1×PBS/1% BSA, the secondary antibody SA-PE was applied and incubated with cells at 4° C. for 1 hour. The cells were then washed and resuspended in 1×PBS/1% BSA. MFI of the cells was measured by a flow cytometer and analyzed by FlowJo (version 7.6.1)."}, "[2]": {"target": "T2, cynomolgus monkey PD-L1 on 293F cells (W315-293F.cynoPro1.2A2) (cynomolgus monkey, UniProt G7PSE7 19-290)", "T2 construct": "whole, on cells; also called cell surface monkey PD-L1; cynoPD-L1", "T2 sequence (G7PSE7 entry or part of it)": "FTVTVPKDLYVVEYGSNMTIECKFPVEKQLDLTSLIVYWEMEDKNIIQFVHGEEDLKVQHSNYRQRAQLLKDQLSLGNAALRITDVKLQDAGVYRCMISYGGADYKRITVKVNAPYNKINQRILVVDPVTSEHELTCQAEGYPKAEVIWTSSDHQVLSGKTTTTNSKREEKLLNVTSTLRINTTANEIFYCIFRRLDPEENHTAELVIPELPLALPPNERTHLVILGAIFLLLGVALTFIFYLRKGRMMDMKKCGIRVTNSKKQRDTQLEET", "assay": "FACS on cynomolgus PD-L1 293F cells", "method": "(§2) After washing with 1×PBS/1% BSA, the secondary antibody PE-labeled goat anti-human IgG was applied and incubated with cells at 4° C. for 1 hour. […] Human IgG1 and IgG4 isotype antibodies were used as negative control. The cells were then washed and resuspended in 1×PBS/1% BSA. MFI of the cells was measured by a flow cytometer (BD) and analyzed by FlowJo (version 7.6.1)."}, "[3]": {"target": "T3, mouse PD-L1 on 293F cells (W315-293F.mPro1.C1) (mouse, UniProt Q9EP73 19-290)", "T3 construct": "whole, on cells; also called cell surface mouse PD-L1; Mouse PD-L1-expressing 293F cell", "T3 sequence (Q9EP73 19-290)": "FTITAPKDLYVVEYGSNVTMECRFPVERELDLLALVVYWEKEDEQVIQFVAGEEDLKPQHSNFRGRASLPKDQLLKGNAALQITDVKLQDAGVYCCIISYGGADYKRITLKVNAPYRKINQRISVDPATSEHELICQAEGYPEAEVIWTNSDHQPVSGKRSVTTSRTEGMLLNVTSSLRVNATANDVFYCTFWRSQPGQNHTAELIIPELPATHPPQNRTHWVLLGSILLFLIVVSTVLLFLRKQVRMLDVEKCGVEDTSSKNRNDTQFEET", "assay": "FACS competition: antibody titrated against 5 ug/mL mouse PD-1 ECD mFc on mouse PD-L1 293F cells", "method": "as §2, with “Mouse PD-L1 transfected W315-293F.mPro1.C1 cells were transferred into 96-well U-bottom plates at a density of 2×10⁵ cells/well. […] After” for “After”, “anti-mouse” for “anti-human”"}, "[4]": {"target": "T1, human PD-L1 on CHO-K1 cells …", "assay": "FACS competition on human PD-L1 CHO-K1 cells: titrated W3156 antibody mixed with 0.5 ug/mL biotinylated BMK8.hIgG4 (m5), SA-PE [A]", "method": "as §1"}, "[5]": {"target": "T3, mouse PD-L1 on 293F cells …", "assay": "FACS affinity on mouse PD-L1 cells, quantitative beads", "method": "(§3) Binding affinities of testing antibodies to cell surface human, cynomolgus and mouse PD-L1 were determined by flow cytometry on the engineering cell lines, respectively. The cells were transferred in to 96-well U-bottom plates (BD) at a density of 5×10⁴ cells/well. Antibodies to be tested were 1: 2-fold serially diluted in 1% BSA/1×PBS and incubated with cells at 4° C. for 1 hr. Then, the plates were centrifuged at 1500 rpm for 4 mins and the supernatant was discarded. The secondary antibody, Alexa647 conjugated goat anti-human IgG Fc (Jackson, Cat No. 109-605-098, Lot No. 121363), was added to re-suspend cells and incubated at 4° C. in the dark for 30 min. The cells were washed once and re-suspended in 100 μL 1% BSA/1×PBS, then measured by flow cytometry (BD Canto II) and analyzed by FlowJo. Fluorescence intensity was converted to bound molecules/cell based on the quantitative beads (Quantum™ MESF Kits, Bangs Laboratories). KD value was calculated by Graphpad Prism5."}, "[6]": {"target": "T1, human PD-L1 on CHO-K1 cells …", "assay": "FACS on human PD-L1 CHO-K1 cells", "method": "as §2"}, "human serum Albumin": {"target": "human serum Albumin (human, UniProt P02768 25-609)", "assay": "non-specific binding ELISA, antigen coated at 2 ug/mL", "method": "Non-specific binding ELISA was performed in 96-well high binding plates (Nunc-Immuno Plate, Thermo Scientific). The plate was coated with various antigens (as listed in the left column of Table 11) at 2 μg/mL overnight at 4° C. After blocking with 2% BSA-PBS, 10 μg/ml antibodies were added to the plate and incubated for 2 hours. […] The HRP signal was detected by adding TMB peroxidase substrate and the reaction was stopped after 12 minutes using 2M HCl. The absorbance at 450 nm was read using a microplate reader (Molecular Device). All incubation steps were performed at room temperature. The plate was washed with PBST (0.05% Tween20-PBS) between steps."}, "[7]": {"target": "T2, cynomolgus monkey PD-L1 on 293F cells …", "assay": "FACS affinity on cynomolgus PD-L1 cells, quantitative beads", "method": "as §3"}, "[8]": {"target": "T1, human PD-L1 on CHO-K1 cells …", "assay": "FACS affinity on human PD-L1 cells, quantitative beads", "method": "as §3"}, "[9]": {"target": "T3, mouse PD-L1 on 293F cells …", "assay": "FACS on mouse PD-L1 293F cells", "method": "as §2"}, "[10]": {"target": "T1, human PD-L1 on CHO-K1 cells …", "assay": "FACS competition: antibody titrated against 5 ug/mL human PD-1 ECD mFc on human PD-L1 CHO-K1 cells", "method": "as §2, with “Human PD-L1 transfected W315-CHO-K1.hPro1.C11 cells were transferred into 96-well U-bottom plates at a density of 1×10⁵ cells/well. […] After” for “After”, “anti-mouse” for “anti-human”"}}, "data": [{"binder": "B1", "values": [{"measurement": "IC50 (read off the curve)", "setting": "[1]", "result": "~3", "unit": "nM"}, {"measurement": "EC50", "setting": "[2]", "result": 2.06, "unit": "nM"}, {"measurement": "IC50", "setting": "[3]", "result": 2.14, "unit": "nM"}, {"measurement": "IC50 (read off the curve)", "setting": "[4]", "result": "~3", "unit": "nM"}, {"measurement": "Kd", "setting": "[5]", "result": 0.69, "unit": "nM"}, {"measurement": "EC50", "setting": "[6]", "result": 0.458, "unit": "nM"}, {"measurement": "binding result", "setting": "human serum Albumin", "result": "no binding (tested: 10 µg/ml)"}, {"measurement": "Kd", "setting": "[7]", "result": 7.3, "unit": "nM"}, {"measurement": "Kd", "setting": "[8]", "result": 0.26, "unit": "nM"}, {"measurement": "EC50", "setting": "[9]", "result": 1.24, "unit": "nM"}, {"measurement": "IC50", "setting": "[10]", "result": 0.871, "unit": "nM"}]}]}
